Key:
Experiment in all cases: pull-down binding Z-score (relative to library population); higher = stronger binding
Conditions in all cases: RNA library: Library-2
[1] = system: TO-3-N3 (biotin conjugate)
Method in brief: (§1)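 Streptavidin beads bearing 100 pmol of a biotin-conjugated small molecule were incubated for 60 min at 25 °C with 1 μg of heat-folded, Cy5- or Cy3-end-labelled RNA library in phosphate/NaCl/KCl buffer. Hot SDS eluted the RNA that stayed bound after three washes, and this RNA was hybridised for 20 h at 55.5 °C to a DNA barcode microarray. Binding was expressed as a Z-score against the library mean and standard deviation, after subtraction of a beads-only signal and trimmed averaging of barcoded replicate probes.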

[2] = system: TO-N3-2 (biotin conjugate)
Method in brief: as §1

[3] = system: TO-N3 (biotin conjugate)
Method in brief: as §1

[4] = system: TO-3-N3-2 (biotin conjugate)
Method in brief: as §1

Sequence	pull-down binding Z-score [1]	pull-down binding Z-score [2]	pull-down binding Z-score [3]	pull-down binding Z-score [4]
ACAUUUUAUCUUACUAAUGAUGU [SHAPE_invivo_SARS-CoV-2_Motif_191]	-0.182	-1.3	-0.428	-0.249
ACCAACCACCACAAACCUCUAUCACCUCAGCUGUUUUGCAGAGUGGUUUUAGAAAAAUGGCAUUCCCAUCUGGU	0.0884	0.456	0.386	0.384
ACCAAUGUGCUAUGAGGCCCAAUUUCACUAUUAAGGGUUCAUUCCUUAAUGGUUCAUGUGGUAGUGUUGGU [SHAPE_invivo_SARS-CoV-2_Multi_27_ComplexLevel_1]	-0.261	-0.569	-0.295	-0.186
ACCACCAAUUAAAGAUUUUGGUGGU [SHAPE_invitro_SARS-CoV-2_Motif_434]	0.206	-1.4	-0.123	-0.49
ACCAGGAGUUUUCUGUGGUGUAGAUGCUGUAAAUUUACUUACUAAUAUGUUUACACCACUAAUUCAACCUAUUGGU [SHAPE_invitro_SARS-CoV-2_Motif_181]	-0.0454	-0.878	-0.0352	-0.13
ACCAGUUAACUGGU [SHAPE_invitro_SARS-CoV-2_Motif_121]	-0.713	-1.19	-1.1	-0.55
ACCAUUCUUCGUAAGGGUGGU	-0.172	-0.847	-0.223	-0.207
ACCAUUGGUAGAUUUGCCAAUAGGU	-0.133	-1.45	-0.966	-0.848
ACCAUUUAAUGAUGGU [DMSMaPseq_invitro_SARS-CoV-2_Motif_383]	-0.648	-1.7	-1.21	-0.365
ACCCUCAAAAAGAGAUGGCAACUAGCACUCUCCAAGGGU	0.217	-0.427	0.0275	0.0435
ACCGGUGGAAUUGCUAUCGCAAUGGCUUGUCUUGUAGGCUUGAUGUGGCUCAGCUACUUCAUUGCUUCUUUCAGACUGUUUGCGCGUACGCGUUCCAUGUGGU	1.2	0.838	1.07	0.131
ACCUAAAUAGAGGU	-0.82	-1.63	-1.22	-0.686
ACCUCGUCUAUGCUUUAAGGCAUUUUGAUGAAGGU	0.13	-0.876	-0.152	-0.357
ACCUGCUCAGUAUGAACUUAAGCAUGGU	-0.339	-0.0122	-0.561	-0.184
ACCUUGAAGGAAAACAGGGU	0.525	-0.135	0.58	0.457
ACCUUUAAUUGAAUUGUGCGUGGAUGAGGCUGGUUCUAAAUCACCCAUUCAGUACAUCGAUAUCGGU [SHAPE_invivo_SARS-CoV-2_Motif_532]	-0.881	-0.962	-1.07	-0.862
ACCUUUAGUACCUUUCUGGAUAACAAUUGCUUAUAUCAUUUGUAUUUCCACAAAGCAUUUCUAUUGGU	0.707	-0.25	0.513	-0.225
ACGACGACUACUAGCGUGCCUUUGUAAGCACAAGCUGAUGAGUACGAACUUAUGUACUCAUUCGUUUCGGAAGAGACAGGUACGUUAAUAGUUAAUAGCGU	-0.319	-0.217	-0.304	-0.333
ACGUACUGCCACUAAAGCAUACAAUGUAACACAAGCUUUCGGCAGACGU	0.386	0.871	0.464	0.565
ACGUGAGUCUUGUAAAACCUUCUUUUUACGUUUACUCUCGU	0.0863	-0.213	0.206	0.0619
ACGUGGCUUUGGAGACUCCGUGGAGGAGGUCUUAUCAGAGGCACGU	-0.105	0.34	0.0366	0.0243
ACUAAAAAUGU [SHAPE_invitro_SARS-CoV-2_Motif_381]	0.184	-0.642	-0.167	-0.343
ACUAAAAUAAAACCUCAUAAUUCACAUGAAGGUAAAACAUUUUAUGUUUUACCUAAUGAUGACACUCUACGUGUUGAGGCUUUUGAGU [DMSMaPseq_invitro_SARS-CoV-2_Multi_18_ComplexLevel_1]	-0.89	-1.02	-1.12	-0.146

Sequence	pull-down binding Z-score [1]	pull-down binding Z-score [2]	pull-down binding Z-score [3]	pull-down binding Z-score [4]
AGGUAAAACCAACAGUGGUUGUUAAUGCAGCCAAUGUUUACCU	-0.405	-1.45	-1.2	-0.615
AGGUAAGUAUGAUACUUACCUG [U1snRNP5ss-2]	-0.742	-0.8	-0.856	-0.581
AGGUCAAAUCAAUGAUAUGAUUUUAUCU [SHAPE_invitro_SARS-CoV-2_Motif_388]	-0.87	-1.35	-1.31	-0.624
AGGUCCAGACAUGUUCCUCGGAACUUGUCGGCGUUGUCCU	-0.757	0.332	-0.838	-0.441
AGGUUGGACAGCUGGUGCUGCAGCUU [SHAPE_invivo_SARS-CoV-2_Motif_420]	0.658	0.891	0.754	0.159
AGGUUGGUAUGCAAAAGUAUUCUACACUCCAGGGACCACCUGGUACUGGUAAGAGUCAUUUUGCUAUUGGCCU	-0.654	0.696	-0.418	-0.203
AGUACACCUUUGAAAAAGGUGACU	-0.883	-1.09	-1.22	-0.572
AGUAUGGCUACAUACU [DMSMaPseq_invitro_SARS-CoV-2_Motif_53]	-0.637	-1.19	-1.06	-0.367
AGUCAGACAAAUCGCUCCAGGGCAAACUGGAAAGAUUGCUGAUU	0.0712	0.136	0.0567	0.0858
AGUCAUAACAAGAGAAGUGGGUUUUGUCGUGCCUGGUUUGCCUGGCACGAUAUUACGCACAACUAAUGGUGACU [DMSMaPseq_invitro_SARS-CoV-2_Motif_162]	-0.612	-0.252	-0.62	-0.178
AGUCAUAGUCAGUUAGGUGGUUUACAUCUACUGAUUGGACU	-1.18	-0.775	-1.35	-0.281
AGUCCCUGUUGCUAUUCAUGCAGAUCAACUUACUCCUACUUGGCGUGUUUAUUCUACAGGUUCUAAUGUUUUUCAAACACGUGCAGGCUGUUUAAUAGGGGCU	-0.948	-0.608	-1.03	-0.638
AGUCUUGUAGUGCGUUGUUCGUUCUAUGAAGACU	-0.733	-1.06	-0.932	-0.844
AGUGAGUACACUGGUAAUUACCAGUGUGGUCACU [SHAPE_invivo_SARS-CoV-2_Motif_119]	0.0351	-1.01	-0.332	0.0249
AGUGAUGGAACU [DMSMaPseq_invitro_SARS-CoV-2_Motif_229]	-0.565	-0.572	-0.658	-0.117
AGUGCCAACAGACAAUUAUAUAACCACUUACCCGGGUCAGGGUUUAAAUGGUUACACU	-0.449	-0.739	-0.462	-0.123
AGUGUAAAAGUGCCUUUUACAUU [DMSMaPseq_invitro_SARS-CoV-2_Motif_79]	-0.69	-1.12	-0.863	-0.399
AGUGUUUGCCUAGGUUCUUUAAUCUACUCAACCGCU	-0.346	-0.432	-0.288	-0.219
AGUUCAAGAAAUUCAACU	-0.166	-0.672	-0.478	-0.224
AGUUCAAGAACUUUACUCUCCAAUUUUUCUUAUUGUUGCGGCAAUAGUGUUUAUAACACUUUGCUUCACACUCAAAAGAAAGACAGAAUGAUUGAACU	-0.889	-1.13	-1.27	-0.46
AGUUGCUUACUCUAAUAACU [DMSMaPseq_invitro_SARS-CoV-2_Motif_421]	-0.129	-0.822	-0.387	-0.314
AGUUGUGAUCAACU	-0.744	-1.24	-1.06	-0.728
AGUUUACGCCCUGACACACGUUAUGUGCUCAUGGAUGGCU	-0.721	-0.321	-0.719	-0.516

Sequence	pull-down binding Z-score [1]	pull-down binding Z-score [2]	pull-down binding Z-score [3]	pull-down binding Z-score [4]
AGUUUUUGUACACAAUUAAACCGUGCUUUAACU	-0.534	-1.04	-0.618	-0.252
AUAAAAUAGAAGAAUUAUUCUAUUCUUAU	-0.26	-1.22	-0.62	-0.288
AUAAACCACCCAUUAGUUUUCCAUUGUGUGCUAAUGGACAAGUUUUUGGUUUAU	-0.734	-1.1	-1.34	-0.594
AUAAAGAAAUGUAUCUAAAGUUGCGUAGUGAUGUGCUAUUACCUCUUACGCAAUAUAAUAGAUACUUAGCUCUUUAU	-0.341	-0.61	-0.507	-0.197
AUAACAAUACUAGAUGGAAUUUCACAGUAUUCACUGAGACUCAUUGAUGCUAUGAUGUUCACAUCUGAUUUGGCUACUAACAAUCUAGUUGU	0.311	-0.351	0.384	0.176
AUAAGAAAGACAAUUCUUAU [DMSMaPseq_invitro_SARS-CoV-2_Motif_114]	-0.755	-1.45	-1.07	-0.3
AUAAUAAGAGGCUGGAUUUUUGGUACUACUUUAGAUUCGAAGACCCAGUCCCUACUUAUUGU	-0.735	-0.612	-0.881	-0.168
AUACCACUUAUGUACAAAGGACUUCCUUGGAAUGUAGUGCGUAU	-0.527	0.76	-0.207	-0.319
AUACCUGCACGUGCUCGUGUAGAGUGU	0.0809	-0.468	-0.0676	-0.0175
AUAGAUUAUGUACCACUAAAGUCUGCUACGUGUAUAACACGUUGCAAUUUAGGUGGUGCUGUCUGU	-0.766	-0.77	-1.01	-0.399
AUAUAACUUCUAAAGAAACUUUGUAU	-0.911	-1.1	-1.28	-0.347
AUAUGUUUACACCACUAAUUCAACCUAUUGGUGCUUUGGACAUAU [DMSMaPseq_invitro_SARS-CoV-2_Motif_171]	-0.425	-0.719	-0.635	-0.311
AUCAAGACUAUUCAACCAAGGGUUGAAAAGAAAAAGCUUGAU	-0.561	-1.25	-0.904	-0.241
AUCACUAGGUUUCAAACUUUACUUGCUUUACAUAGAAGUUAUUUGACUCCUGGUGAU	-0.735	-1.03	-0.884	-0.375
AUCCGAUUUACAGGAU	-0.684	-1.16	-0.894	-0.525
AUCUACAAUGAU [DMSMaPseq_invitro_SARS-CoV-2_Motif_243]	-0.553	-1.55	-0.892	-0.742
AUCUGAAUUCUUCUAGAGUUCCUGAU	0.655	-0.858	0.466	-0.168
AUCUUAGGGAAUUUGUGUUUAAGAAUAUUGAUGGUUAUUUUAAAAUAUAUUCUAAGCACACGCCUAUUAAUUUAGUGCGUGAUCUCCCUCAGGGU	-0.775	-0.222	-0.897	-0.113
AUCUUCUGCAGGCUGCUUACGGUUUCGUCCGUGUUGCAGCCGAUCAUCAGCACAUCUAGGUUUUGUCCGGGUGUGACCGAAAGGUAAGAU [DMSMaPseq_invitro_SARS-CoV-2_Multi_2_ComplexLevel_1]	-0.599	-0.919	-1.06	-0.451
AUCUUUCUGUGCUUUUGCUGUAGAUGCUGCUAAAGCUUACAAAGAU	0.238	-0.263	0.0426	0.0938
AUGAACCACAAAUCAU [DMSMaPseq_invitro_SARS-CoV-2_Motif_444]	0.463	-1.03	0.254	-0.31
AUGAAUCUCUCAU [SHAPE_invivo_SARS-CoV-2_Motif_473]	-0.104	-0.958	-0.427	-0.347
AUGAGAAGUGCUCUGCCUAUACAGUUGAACUCGGUACAGAAGUAAAUGAGUUCGCCUGUGUUGUGGCAGAUGCUGUCAU [SHAPE_invitro_SARS-CoV-2_Motif_53]	-0.626	2.07	0.461	-0.278
